Assay results taken from US20250064890A1, “PROTEIN COMPOSITIONS FOR THE TREATMENT OF INFLAMMATORY DISEASES” (Unichem Laboratories Limited, priority 2021, published 2025).
Read-outs that look alike come from different tables or passages of the source.

Legend:
Format in all cases: cell-based, human
[1] = tested on: oral (buccal) mucosa cells (TR146)
Protocol: The protective effect of the recombinant lectin on survival of TR146 cells against 5-FU induced damage was determined using following calculations:
The viability of cells was determined as: % Cell viability=(100−% Cytotoxicity); • where, the percentage cytotoxicity corresponding to each treatment was calculated as: % Cytotoxicity=[(R−X)/R]*100, wherein X=Absorbance of cells treated with 5-FU or radiation damage/TI+5-FU, R=Absorbance of Control cells (Untreated) and Percentage protection was calculated as:
{(Absorbance of TI+5-FU or radiation)−(Absorbance of 5-FU or radiation alone)/(Absorbance of Untreated)−(Absorbance of 5-FU alone)}*100

[2] = tested on: oral (buccal) mucosa cells (TR146); test: Restoration of mitochondrial membrane potential (JC-1) against radiation induced damage; details: for MMP: red/green JC-1 fluorescence ratio
Protocol: (§1) Oral buccal mucosal cells (TR146) were incubated overnight in 5% CO2 incubator at 37° C. for 24 h. […] After 24 h of treatment, cells were exposed to damage (5-FU 5 mM) for 1.25 h for chemotherapy induced inflammation and exposed to gamma radiation (3.5 kGy) using Cobalt 60 for radiation induced inflammation. After the exposure, the anti-apoptotic effect of SEQ ID NO 2 was determined by restoration of mitochondrial membrane depolarization by JC-1 staining and reduction in apoptotic cell populations (Annexin positive and subG0/G1 cells in cell cycle analysis).
After incubation, the supernatants were discarded and 100 μl of JC1-dye solution (prepared by diluting 1 mM DMSO stock into 10 μM in 1×PBS) was added to each well. The cells were then incubated with the dye in CO2 incubator at 37° C. for 15 min, after which the supernatant was removed, and the cells were washed twice with 1×PBS. 100 μl of 1×PBS was finally added to each well. Red fluorescence (excitation 550 nm, emission 600 nm) and green fluorescence (excitation 485 nm, emission 535 nm) were measured using Biotek Synergy HT plate reader. The mitochondrial membrane potential (Δψm) was calculated as the ratio of intensity of red fluorescence to intensity of green fluorescence.
The percentage increase/restoration in mitochondrial membrane potential (MMP) was calculated as: % Increase=[(R−X)/R]*100 • Where, X=Δψm corresponding to TI+5-FU treated cells or TI+radiation treated cells; R=Δψm corresponding to control cells (FU damaged or Radiation damaged alone)

[3] = tested on: oral (buccal) mucosa cells (TR146); test: Annexin positive cell population against radiation damage; details: for % Apoptotic cells: Annexin positive
Protocol: as §1
To determine the reduction in apoptotic cell populations using annexin-v staining cells were gently harvested into pre-labeled sterile centrifuge tubes and centrifuged at 300×g for 5-7 min. Supernatant were discarded and the pellet was resuspended in 200 μl of fresh culture medium. 100 μl of cell suspension was transferred into pre-labeled sterile centrifuge tubes. 100 μl of Annexin-V reagent was added to each tube and incubated for 30 min at RT in dark. Cells stained for Annexin-V were then transferred into 96-well plates and acquired on flow cytometer (Guava technologies). Percentage of Annexin-V positive cells was calculated as follows:
={[% Annexin positive cells in 5-FU or radiation alone]−[% Annexin positive cells in (TI+5-FU) or (TI+radiation)]/% Annexin positive cells in 5-FU or radiation alone}*100

[4] = tested on: oral (buccal) mucosa cells (TR146); test: Sub(G0/G1) cell population (cell cycle) against radiation induced damage; details: for % Decrease in Apoptotic cells (with respect to control): Sub G0/G1
Protocol: To determine the effect of test item on cell cycle, oral buccal mucosal cells (TR146) were incubated overnight in 5% CO2 incubator at 37° C. for 24 h. […] After 24 h of treatment, cells were exposed to chemotherapy (5-FU 10 mM) for 24 h or radiotherapy (Gamma radiation (3.5 kGy) using Cobalt 60) for 2 h.
After incubation, cells were harvested by trypsinization and processed for Cell cycle assay. Accordingly, cells were harvested into prelabeled centrifuge tubes and centrifuged at 450 g for 5 min at room temperature (RT, low brake). The supernatants were removed carefully and discarded. 1 ml of 1× phosphate buffer saline (PBS) was added to the pellet and resuspended gently to make homogenous suspension. Cells were centrifuged at 450 g for 5 min, RT (low brake). The supernatant was carefully removed leaving behind approx. 100 μl of PBS. Cells were resuspended gently yet thoroughly in residual PBS. Ice-cold 70% ethanol (100 μl) was added drop-wise into cells in each tube while vortexing at low speed (fixation step). Cells stored at 4° C. for 24 h were centrifuged at 450 g for 5 min, RT (low brake). The supernatant was carefully removed without touching the pellet and discarded. 1 ml of 1×PBS was added into pellet and resuspended gently. Cells were incubated for 1 minute at RT. Cells were centrifuged at 450 g for 5 min, RT (low brake). The supernatant was removed carefully without touching the pellet, leaving behind approx. 20-50 μl of PBS. 200 μl of cell cycle reagent was added into each tube. Cells were resuspended gently and mixed. Cells were incubated for 30 min at RT in the dark. The stained samples were transferred into 96-well plates and acquired on flow cytometer (Guava technologies). Percentage of cells in Sub (G0/G1) phase were determined based on the concept that cell cycle reagent contains PI stain, which stains DNA of cells in different phases of cell cycle; Sub (G0/G1), G1, S, G2 and M. Cells in Sub (G0/G1) phase correspond to apoptotic cells. Percent inhibition in apoptotic cells is determined by the formula:
=[(% Sub(G0/G1) cells in 5-FU/radiation alone)−(% Sub(G0/G1) cells in TI+5-FU/radiation)/% Sub(G0/G1) cells in 5-FU/radiation alone]*100

[5] = 100 ng/ml + Radiation (3.5 kGy)
[6] = 200 ng/ml + Radiation (3.5 kGy)

B1: EGF: positive control (PC-1 in Tables 4, 6, 8) in the radiation damage tests (protein, UniProt P01133 23-1207, looked up)
Pro-epidermal growth factor: PQHWSCPEGTLAGNGNSTCVGPAPFLIFSHGNSIFRIDTEGTNYEQLVVDAGVSVIMDFHYNEKRIYWVDLERQLLQRVFLNGSRQERVCNIEKNVSGMAINWINEEVIWSNQQEGIITVTDMKGNNSHILLSALKYPANVAVDPVERFIFWSSEVAGSLYRADLDGVGVKALLETSEKITAVSLDVLDKRLFWIQYNREGSNSLICSCDYDGGSVHISKHPTQHNLFAMSLFGDRIFYSTWKMKTIWIANKHTGKDMVRINLHSSFVPLGELKVVHPLAQPKAEDDTWEPEQKLCKLRKGNCSSTVCGQDLQSHLCMCAEGYALSRDRKYCEDVNECAFWNHGCTLGCKNTPGSYYCTCPVGFVLLPDGKRCHQLVSCPRNVSECSHDCVLTSEGPLCFCPEGSVLERDGKTCSGCSSPDNGGCSQLCVPLSPVSWECDCFPGYDLQLDEKSCAASGPQPFLLFANSQDIRHMHFDGTDYGTLLSQQMGMVYALDHDPVENKIYFAHTALKWIERANMDGSQRERLIEEGVDVPEGLAVDWIGRRFYWTDRGKSLIGRSDLNGKRSKIITKENISQPRGIAVHPMAKRLFWTDTGINPRIESSSLQGLGRLVIASSDLIWPSGITIDFLTDKLYWCDAKQSVIEMANLDGSKRRRLTQNDVGHPFAVAVFEDYVWFSDWAMPSVMRVNKRTGKDRVRLQGSMLKPSSLVVVHPLAKPGADPCLYQNGGCEHICKKRLGTAWCSCREGFMKASDGKTCLALDGHQLLAGGEVDLKNQVTPLDILSKTRVSEDNITESQHMLVAEIMVSDQDDCAPVGCSMYARCISEGEDATCQCLKGFAGDGKLCSDIDECEMGVPVCPPASSKCINTEGGYVCRCSEGYQGDGIHCLDIDECQLGEHSCGENASCTNTEGGYTCMCAGRLSEPGLICPDSTPPPHLREDDHHYSVRNSDSECPLSHDGYCLHDGVCMYIEALDKYACNCVVGYIGERCQYRDLKWWELRHAGHGQQQKVIVVAVCVVVLVMLLLLSLWGAHYYRTQKLLSKNPKNPYEESSRDVRSRRPADTEDGMSSCPQPWFVVIKEHQDLKNGGQPVAGEDGQAADGSMQPTSWRQEPQLCGMGTEQGCWIPVSSDKGSCPQVMERSFHMPSYGTQTLEGGVEKPHSLLSANPLWQQRALDPPHQMELTQ
modifications: Pro-epidermal growth factor
**Q.** Which results are given for B1?
**A.** % Protection ([1]; 10 ng/ml + Radiation (3.5 kGy)): 18%; % Protection ([1]; 50 ng/ml + Radiation (3.5 kGy)): 44.4%; % Protection [1, 5]: 46.5%; % Protection [1, 6]: 8.8%; % Increase in MMP (with respect to control) ([2]; 50 ng/ml + Radiation (3.5 kGy)): 41.8%; MMP ([2]; 50 ng/ml + Radiation (3.5 kGy)): 6.53; % Increase in MMP (with respect to control) [2, 5]: 33.4%; MMP [2, 5]: 6.14; % Increase in MMP (with respect to control) [2, 6]: 18.8%; MMP [2, 6]: 5.47; % Decrease in Apoptotic cells (with respect to radiation control) ([3]; 50 ng/ml + Radiation (3.5 kGy)): 0%; % Apoptotic cells ([3]; 50 ng/ml + Radiation (3.5 kGy)): 13.7%; % Decrease in Apoptotic cells (with respect to radiation control) [3, 5]: 35.9%; % Apoptotic cells [3, 5]: 8.8%; % Decrease in Apoptotic cells (with respect to radiation control) [3, 6]: −1.5%; % Apoptotic cells [3, 6]: 13.9%; % Apoptotic cells (Sub G0/G1) ([4]; 50 ng/ml + Radiation (3.5 kGy)): 10.8%; % Decrease in Apoptotic cells (with respect to control) ([4]; 50 ng/ml + Radiation (3.5 kGy)): 69.5%; % Apoptotic cells (Sub G0/G1) [4, 5]: 16.4%; % Decrease in Apoptotic cells (with respect to control) [4, 5]: 53.5%; % Apoptotic cells (Sub G0/G1) [4, 6]: 30.5%; % Decrease in Apoptotic cells (with respect to control) [4, 6]: 13.7%
